These results are taken from patent US20040037843A1.

Read-outs that look alike come from different tables or passages of the source. Ends that are not written are not given here.

In experiment [1] the target is HLA-A*2401 (purified HLA class I molecule) (human). As to the kind of experiment: competition with 125I-labelled standard peptide for purified HLA, gel filtration. Background: In gel filtration, larger molecules generally elute earlier.
Experiment [2] addresses HLA-A*2401 (human). Put plainly: competition with 125I-labelled probe peptide for purified HLA, gel filtration.
Experiment [3] concerns the target HLA-A*0206 (human). Put plainly: inhibition of 125I probe peptide binding to purified HLA. The settings on record: remark: other sources report otherwise.
Experiment [4] has as its target HLA-A*0201 (human). Described as above. The settings on record: remark: other sources report otherwise.
Experiment [5] addresses HLA-A*0203 (human). The experiment is described as above. Particulars: remark: other sources report otherwise.
Experiment [6] concerns the target HLA-A*0202 (human). The description is as above. Particulars: remark: other sources report otherwise.
Experiment [7] deals with HLA-A*0201 (human). As to the kind of experiment: competition with 125I-labelled standard peptide for purified HLA, gel filtration. Particulars: remark: other sources report otherwise.
Experiment [8] deals with HLA-A*2401 (purified HLA class I molecule) (human).
The target in experiment [9] is HLA-A*0206 (human). Put plainly: competition with 125I-labelled standard peptide for purified HLA, gel filtration. Particulars: remark: other sources report otherwise.
Experiment [10] has as its target HLA-A*0203 (human). The experiment is described as above. The settings on record: remark: other sources report otherwise.
For experiment [11], the target named is HLA-A*0202 (human). Described as above. The settings on record: remark: other sources report otherwise.
Experiment [12] addresses HLA-A*0206 (human). As to the kind of experiment: inhibition of 125I probe peptide binding to purified HLA, gel filtration. The settings on record: remark: other sources report otherwise.
For experiment [13], the target named is HLA-A*0201 (human). The experiment is described as above. Particulars: remark: other sources report otherwise.
The target of experiment [14] is HLA-A*0202 (human). The experiment is described as above. Particulars: remark: other sources report otherwise.
The target of experiment [15] is HLA-A*2401 (human). As to the kind of experiment: competition with 125I-labelled probe peptide for purified HLA, gel filtration. This is another data set of the same source.
In experiment [16] the target is HLA-A*6802 (human). Particulars: remark: other sources report otherwise.
In experiment [17] the target is HLA-A*0201 (human). Particulars: remark: other sources report otherwise.
For experiment [18], the target named is HLA-A*0203 (human). Particulars: remark: other sources report otherwise.
In experiment [19] the target is HLA-A*0206 (human). The settings on record: remark: other sources report otherwise.
Experiment [20] addresses HLA-A*0202 (human). As to the kind of experiment: competition with 125I probe peptide on purified HLA, gel filtration. Particulars: remark: other sources report otherwise.
The mark [21] stands for this setting: scale: ratio to standard peptide.

Consider LFPPEGVSIW [PAP position 123, 10 amino acids], for which the relative binding ratio (IC50 of standard peptide / IC50 of test peptide) in experiment [1] and in experiment [2] was 0.014 in each case.

Take DLPTQEPALGT [PSA position 136, 11 amino acids]: the relative binding ratio was found to be 0.0001 in [3], 0.0041 in experiment [4], 0.01 in experiment [5] and 0.018 in [6].

As to VISNDVCAQV [PSA position 174, 10 amino acids], the relative binding ratio (IC50 of standard peptide / IC50 of test peptide) in experiment [7] was found to be 0.0008.

GFLFLLFFWL [PAP (prostatic acid phosphatase) peptide, position 17, 10 amino acids]: the relative binding ratio (IC50 of standard peptide / IC50 of test peptide) in [8] came out at 0.0007.

Turning to GFLFLLFFW [PAP (prostatic acid phosphatase) peptide, position 17, 9 amino acids], in experiment [8], the relative binding ratio (IC50 of standard peptide / IC50 of test peptide) is 0.0016.

Turning to FFWLDRSVL [PAP (prostatic acid phosphatase) peptide, position 23, 9 amino acids], in experiment [8], the relative binding ratio (IC50 of standard peptide / IC50 of test peptide) stood at 0.0017.

As for LTLSVTWIGA [PSA peptide, position 4, 10 amino acids], the relative binding ratio in experiment [9] (setting [21]) came to 0.011; in experiment [7] (setting [21]), 0.0018; in experiment [10] (setting [21]), 0.082; in experiment [11] (setting [21]), 0.045.

For the molecule GAAPLILSRIV [PSA position 12, 11 amino acids], the results for the relative binding ratio in [9], in experiment [10] and in experiment [11] were 0.0006, 0.011 and 0.022, respectively.

A word on the IC50: it is the concentration at which inhibition is half-maximal. For LLFFWLDRSV [Peptide 1097.09 … (PAP.21)], in experiment [6], the IC50 stood at 0.6 nM.

For the molecule LLARAASLSV [Peptide 63.0031 … (PAP.7.V10)], the IC50 in experiment [3] came to 0.378 µM; in experiment [6], 10 nM.

In the case of VVFLTLSVTWI [Peptide 1419.25 (PSA.1)], the IC50 in experiment [12] stood at 2850 nM; in experiment [13], 385 nM; in [14], 159 nM.

For the molecule LFFWLDRSVL [PAP position 22, 10 amino acids], the relative binding ratio (IC50 of standard peptide / IC50 of test peptide) in experiment [15] and in [2] was 0.0045 throughout.

Regarding FLFLLFFWV [Peptide 60.0203 … (PAP.18.V9)], the 50% inhibitory concentration (IC50) in [5] turned out to be 625 nM; in experiment [6], 307 nM.

For the molecule LMLLRLSEPA [peptide 63.0014 (HuK2.121)], the IC50 in [16] is 5 µM; in experiment [17], 200 nM.

As to LLSNDMCARA (not fully specified) [Kallikrein (human kallikrein2) peptide, position 178, 10 amino acids], the relative binding ratio in [9] (setting [21]) amounted to 0.002; in experiment [7] (setting [21]) it was 0.003; in experiment [10] (setting [21]), 0.028; in [11] (setting [21]) it was 0.08.

With HLLSNDMCARA (not fully specified) [peptide 1419.15 (HuK2.177)], in experiment [18], the IC50 was found to be 250 nM.

As to LLARAASLSL [Peptide 20.0203 … (PAP.7)], the IC50 came to 9.25 µM in [3], 500 nM in experiment [4] and 5.2 nM in [6].

Take SVGCTGAVPV [peptide 1418.35 (HuK2.11.V10)]: the half-maximal inhibitory concentration (IC50) in experiment [19] came to 552 nM; in experiment [17] it was 104 nM; in experiment [18], 154 nM.

On to CALPERPSLYT [PSA position 230, 11 amino acids], for which the relative binding ratio in [3] came out at 0.0016; in experiment [4], 0.0008; in experiment [5], 0.0071.

For the molecule CAGRWTGGKST [PSA position 194, 11 amino acids], the relative binding ratio in [3] came to 0.0002; in [4], 0.0013; in [5] it was 0.025; in experiment [6], 0.037.

Regarding PTQEPALGTT [Kallikrein position 142, 10 amino acids], the relative binding ratio (IC50 of standard peptide / IC50 of test peptide) in experiment [9] turned out to be 0.0037; in experiment [7], 0.0084; in experiment [10] it was 0.052; in experiment [11] it was 0.022.

For the molecule LFPPEGVSI [PAP position 123, 9 amino acids], the relative binding ratio (IC50 of standard peptide / IC50 of test peptide) in [1] and in [2] was 0.0033 throughout.

Regarding SLQCVSLHV [peptide 1418.19 (HuK2.170.V9)], the values for the concentration for half-maximal inhibition (IC50) in experiment [19], in experiment [17] and in experiment [18] were 4110 nM, 56 nM and 48 nM, respectively.

Take EYIRKRYRKF [PAP (prostatic acid phosphatase) peptide, position 83, 10 amino acids]: the relative binding ratio (IC50 of standard peptide / IC50 of test peptide) in experiment [8] is 0.0067.

With CARAYSEKVT [Kallikrein position 184, 10 amino acids], the relative binding ratio in experiment [3] came to 0.003; in experiment [4], 0.0074; in [5] it was 0.02.

LLRLSEPAELT [PSA peptide, position 119, 11 amino acids]: the relative binding ratio in [9] (setting [21]) amounted to 0.0002; in [7] (setting [21]), 0.0023.

On to VLAKELKFVTL [Peptide 63.0142 … (PAP.30)], for which the half-maximal inhibitory concentration (IC50) is 6.9 nM in experiment [4] and 8.1 nM in experiment [6].

As for LYFEKGEYF [PAP position 318, 9 amino acids], the relative binding ratio (IC50 of standard peptide / IC50 of test peptide) in [1] and in experiment [2] was 2.5 each time.

On to ALFPPEGVSV [Peptide 1419.61 … (PAP.122.V10)], for which the half-inhibitory concentration (IC50) in [20] was determined as 1 nM.

Molecule KLQCVDLHVV [Peptide 63.0058 (PSA.166.V10)] registered an IC50 in [12] of 500 nM.

For the molecule ITSWGSEPCAL (not fully specified) [PSA position 222, 11 amino acids], the relative binding ratio in [9] stood at 0.0001; in experiment [7], 0.001; in [10] it was 0.0096; in experiment [11], 0.012.

Consider IALSVGCTGAV [Kallikrein position 8, 11 amino acids], for which the relative binding ratio was found to be 0.01 in experiment [9], 0.0009 in experiment [7], 0.027 in experiment [10] and 0.0032 in experiment [11].

Regarding FLRPRSLQCV [peptide 1419.07 (HuK2.165)], the IC50 in experiment [18] is 4.2 nM.

On to LTPKKLQCVDL [PSA peptide, position 162, 11 amino acids], for which the relative binding ratio in experiment [10] (setting [21]) amounted to 0.0074; in [11] (setting [21]), 0.0087.

For the molecule DLMLLRLSEPV [Peptide 63.0109 (PSA.116.V11)], in experiment [13], the half-maximal inhibitory concentration (IC50) was 50 nM.

FLTLSVTWV [Peptide 60.0216 (PSA.3.V9)] registered an IC50 in [14] of 8.4 nM.

Turning to LYCESVHNF [PAP position 213, 9 amino acids], the relative binding ratio (IC50 of standard peptide / IC50 of test peptide) in experiment [1] and in [2] was 0.44 in each case.

As for VVFLTLSVTWV [Peptide 63.0185 (PSA.1.V11)], the figures for the 50% inhibitory concentration (IC50) in experiment [12] and in [13] were 336 nM and 89 nM, respectively.

For the molecule GLHGQDLFGI [Peptide 1166.11 … (PAP.196)], the IC50 in [20] came to 0.9 nM.
